Results reported in the RNAGym collection of RNA variant scans (doi:10.7554/elife.80360).

B1: Twister Ribozyme (parent)
chain: AACACUGCCAAUGCCGGUCCCAAGCCCGGAUAAAAGUGGAGGGGGCGG

Variants of: B1
Test: self-cleavage, relative activity (ratio to wild type); higher = more cleavage; co-transcriptional

Variant | self-cleavage
AACACUGCCAACGCCGGUCCCAAGCCCGGAUAAAAGUGGUGGGGGCGG [U12C A40U] | 0.144
AACACUGCCAAUGCCGGUCCCAAGCCCUGAUGAAAGUGGAGGGGGCGG [G28U A32G] | 0.777
AACACUGCCAAUGCCGGUCCGAAGCCCGGAUAAAAGUGGAGGGUGCGG [C21G G44U] | 0.102
AACACUGCCAAUGCCGGCCCCAACCCCGGAUAAAAGUGGAGGGGGCGG [U18C G24C] | 0.0613
AACACUGCCAAUGCCGGUCCCAAGCCCGGAUAAAUGUGGAGAGGGCGG [A35U G42A] | 0.376
AACACUGCCAAUCCCGGUCCCAAGCCCAGAUAAAAGUGGAGGGGGCGG [G13C G28A] | 0.307
AACACUGCCAAUGCCGGUCCCAAGCCCGGAGAAAAGUGGAGGCGGCGG [U31G G43C] | 0.18
AACACUGCCAAUGCCGGUCCCAAGACCGGAUCAAAGUGGAGGGGGCGG [C25A A32C] | 0.0985
AACAUUGCCAAUACCGGUCCCAAGCCCGGAUAAAAGUGGAGGGGGCGG [C5U G13A] | 0.417
AACACUGCCAAUGCCGGUUCCAAGCCCGGAUAAAAGUAGAGGGGGCGG [C19U G38A] | 0.855
AACACUGCCAAUUCCGCUCCCAAGCCCGGAUAAAAGUGGAGGGGGCGG [G13U G17C] | 0.0903
AACACUGCCAAUGCCGGUCCCAACCCCGGAUUAAAGUGGAGGGGGCGG [G24C A32U] | 0.13
AACACUGCCAAUGCCGGUCCCAAGGCCGGAUAAUAGUGGAGGGGGCGG [C25G A34U] | 0.158
AACACAGCCAAUGCCAGUCCCAAGCCCGGAUAAAAGUGGAGGGGGCGG [U6A G16A] | 0.604
AACACUGGCAAUGCCGGUCCCAAGCCCGGAUAAAAGUGGAGGCGGCGG [C8G G43C] | 0.139
AACACUGCCAAUGCCGGUCCCAAGCCCGUAUAAAACUGGAGGGGGCGG [G29U G36C] | 0.319
AACACUGCCAAUGCCGGUCCAAAGCCCGGAUAAAAGUGGAGGGCGCGG [C21A G44C] | 0.0966
AACACUGCCAAUGCCGGUCCCAACCCCGGAUAAAAGUGGAGGGUGCGG [G24C G44U] | 0.0952
AACGCUGCCAAUGCCGGUCCCAAGCCCGGAUAAAAGCGGAGGGGGCGG [A4G U37C] | 0.99
AACACUGCCCAUGCCGGUCCCAAGCCCGGAUAAAAGUGAAGGGGGCGG [A10C G39A] | 0.601
AACACUGCCCAUGCCGGUCCCAAGCCCGGAUAAUAGUGGAGGGGGCGG [A10C A34U] | 0.951
AACACUGCCAAUGACGCUCCCAAGCCCGGAUAAAAGUGGAGGGGGCGG [C14A G17C] | 0.12
AACACUGCCAAUGCCGGUCCCAUGCCCGGAUAAAAGUGGAGGGGGCGG [A23U] | 0.697
AACACUGCCAAUGCCGGACCCAAGCCCGGAUAAAAGUGGAAGGGGCGG [U18A G41A] | 0.101
AACACUGCCAAUGCCGGCCCCAAGCCCGGAUAAAAGUGGAGGGGGAGG [U18C C46A] | 0.463
AAUACUGCCAAAGCCGGUCCCAAGCCCGGAUAAAAGUGGAGGGGGCGG [C3U U12A] | 0.41
AACACUGCCAAUGCCGGUCCCAAGCCAGGAUAAAAGUGGAGGGGGAGG [C27A C46A] | 0.416

Variant | self-cleavage
AACACUGACAAUGCCGGUCCCAAGCCCGGACAAAAGUGGAGGGGGCGG [C8A U31C] | 0.652
AGCACUGCCAAUGCCGGUCCCAAGCCCGGAUAAAAGUGCAGGGGGCGG [A2G G39C] | 0.0951
AACAUUGCCAAUGCCGGUCCCAAGCCCGGAUAAAAGUGGACGGGGCGG [C5U G41C] | 0.137
AACACUGCCAAUGCCGGUCCCAAGCCGGGAUAGAAGUGGAGGGGGCGG [C27G A33G] | 0.139
AACACUGCCAAUGCCGGUCCCCAGCCCGGAUAAAAGUGGCGGGGGCGG [A22C A40C] | 0.102
AACACUGCCAAUGCCGGUCCCAAGCCCGGAUAAAAGUGGAGGGGUUGG [G45U C46U] | 0.669
ACCACUGCCAAUGCCGGUCCCGAGCCCGGAUAAAAGUGGAGGGGGCGG [A2C A22G] | 0.0432
AACACUGCCAAUGCCAGUCCAAAGCCCGGAUAAAAGUGGAGGGGGCGG [G16A C21A] | 0.104
AUCACUGCCAAUGCCGGUCCCGAGCCCGGAUAAAAGUGGAGGGGGCGG [A2U A22G] | 0.0815
AACACUGCCAAUGCCGGUCCCAAGACCGGAUAUAAGUGGAGGGGGCGG [C25A A33U] | 0.0752
AACACUGCCAAUGCCGGUCCCAAGCCCGGAUAAAGGUGGAGGGGGUGG [A35G C46U] | 0.854
AACACUGCCUAUGCCGGUCCUAAGCCCGGAUAAAAGUGGAGGGGGCGG [A10U C21U] | 0.0991
AACACUGCCACUGCGGGUCCCAAGCCCGGAUAAAAGUGGAGGGGGCGG [A11C C15G] | 0.0591
AACACUGCCAAUGCCGGUCCCAAGCCCGGAUAAAAGUGGAGGCGGCGC [G43C G48C] | 0.219
AACACUGCCAAUGCCGGUCCCAAGCCCGGAUAAAAGUGGAAGGGUCGG [G41A G45U] | 0.196
AACACUGCCAAUGCAGGUCCCAAGCCCGGAUAAAAGUGGAGGGAGCGG [C15A G44A] | 0.79
AAAACUGCCAAUGCCGGUCCCAAGCCCGGAUAAAAGUGGAGGGGGCGC [C3A G48C] | 0.251
AACACUGCCAAUGCCGGUCCCAAGACCGGAUAAAAGUGGAGGGCGCGG [C25A G44C] | 0.111
AACACUGCCAAUGCCGGUCCCAAGCCCGGAUAAAAAUGGAGGCGGCGG [G36A G43C] | 0.152
AACACCGCCAAUGCCGGUCCCAAGCCCGGAUAAAACUGGAGGGGGCGG [U6C G36C] | 0.112
AACACUGCCAAUGCAGGUCCCAAGCCCGGAUAAAAGUGGAGGGGGGGG [C15A C46G] | 0.525
AACACUGUCAAUGCCGGUCCCAAGCCCGGAUAAAAGUGUAGGGGGCGG [C8U G39U] | 0.136
AACACUGCUAAUGUCGGUCCCAAGCCCGGAUAAAAGUGGAGGGGGCGG [C9U C14U] | 0.596
AACACUGCCAAUGGCGGUCCCAAGCCCGGAUUAAAGUGGAGGGGGCGG [C14G A32U] | 0.184
AACACUGCCAAUGCCCGUCCCUAGCCCGGAUAAAAGUGGAGGGGGCGG [G16C A22U] | 0.21
AACACUGCCAAUGCCGGUGCCAAGCCCGGAUAAAAGUGGAGGGGGCCG [C19G G47C] | 0.193
AGCACUGCCAAAGCCGGUCCCAAGCCCGGAUAAAAGUGGAGGGGGCGG [A2G U12A] | 0.367
